The labels stand for the following.
T1: monkey IL-25 expressed with a C-terminal myc-myc-hexahistidine tag (M. fascicularis (cynomolgus monkey))
T1 construct: also called monkey IL-25-MMH; MfIL-25-MMH
T1 chain: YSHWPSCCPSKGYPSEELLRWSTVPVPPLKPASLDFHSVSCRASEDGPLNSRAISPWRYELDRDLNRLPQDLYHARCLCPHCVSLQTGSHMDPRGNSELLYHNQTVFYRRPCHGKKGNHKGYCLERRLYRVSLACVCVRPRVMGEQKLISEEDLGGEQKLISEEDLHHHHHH

T2: human IL-25 expressed with a C-terminal myc-myc-hexahistidine tag (human)
T2 construct: also called human IL-25-MMH; hIL-25-MMH
T2 chain: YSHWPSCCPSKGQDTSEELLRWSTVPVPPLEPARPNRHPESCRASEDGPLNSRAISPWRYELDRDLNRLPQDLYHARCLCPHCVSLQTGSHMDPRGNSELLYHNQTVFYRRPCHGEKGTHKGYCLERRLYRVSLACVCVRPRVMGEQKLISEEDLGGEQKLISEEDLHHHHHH

B1: H4H10897P (antibody, human IgG4, V domains shown)
VH: QVQLQESGPGLVKPSETLSLTCTVSGGSISDYYWSWIRQPPGKGLEWIGHIYYSGSTNHNPSLKSRVAISVDTSKNQFSLRLYSVTAADTAVYYCARDGYSSSSGFYYFGMDVWGQGTTVTVSS
VL: DIQLTQSPSFLSASVGDRVTITCWASQDINSYLAWYQQKPGKAPKLLIFAASTLQGGVPSRFSGSGSGTEFTLTISSLQPEDFATYYCQHLSSFPPTFGQGTRLEIK
B2: H4H10905P (antibody, human IgG4, V domains shown)
VH: QVQLVQSGAEVKKPGTSVKVSCKASGYTFTNYGISWVRQAPGQGLEWLGWISAYNDNTDYAQKLQARVTMTTDTFTSTAYMDLRSLRSDDTAVYYCARVPITGTTSSFDFWGQGTLVTVSS
VL: DIQMTQSPSSLSASVGDRVTISCRASQTIYSYLNWFQQKPGKAPKLLIYDASSLQSGVPSRFSGSGSGTHFTLTISSLQPEDFATYFCQQTYSTPLTFGGGTKVEIK
B3: H4H10871P (antibody, human IgG4, V domains shown)
VH: QVQLVQSGAEVMKPGASVKVSCKSSDFAFTTYGISWVRQAPGQGLEWMGWISAYNGNTNYEQRFQGRITMTTDTSTTTVYMELRSLRSDDTAVYYCARDPDYCSSNTCSDAFDLWGQGTMVTVSS
VL: DIQMTQSPSSLSASVRDRVTITCRASQGITNYLAWYQQKPGKVPKVLIYAASTLQSGVPSRFSGSGSGTEFTLAISSLQPEDVATYFCQQYGSAPWTFGQGTKVEIK
B4: H4H10876P (antibody, human IgG4, V domains shown)
VH: QVQLVQSGAEVKKPGASVKVSCKASEYTFSNYGISWVRQAPGQGLEWLGWIGAYSGFTKYAQKVQDRITMTTDASTTTAYMELRNLRSDDTAVYYCARVGTGTDSYFDFWGQGTLVTVSS
VL: DIQMTQSPSSLSASVGDRVTITCRASQNINSHLNWYQQKPGKAPKLLIYTASSLQSGVPLRFSGSGSGTDFTLTISSLQPEDFGIYICQQTYITPLTFGGGTKVEIK
B5: H4H10907P (antibody, human IgG4, V domains shown)
VH: EVQLVESGGGLVQPGGSLRLSCAASGFTFSNYDIHWVRQVPGKGLEWISTIGSAGDTFYPGSVKGRFTISRENAKNSLYLQMNSLRAGDSAVYYCARGDNWNYVSWFFDLWGRGTLVTVSS
VL: DIQLTQSPSFLSTSVGDRVTITCWASQDISSFLAWYQQKPGKAPKLLIYAASVLQSGVPSRFSGSGSGTEFTLTISSLQPEDFATYYCQQVNSYPITFGQGTRLEIK
B6: H4H10883P (antibody, human IgG4, V domains shown)
VH: QVQLQESGPGLVKSSETLSLTCTVSGGSISSYYWSWIRQPPGKGLEWIGFIYYSGSTNYNPSLKSRVTFSVDTSKNHFSLKLNSVTATDTAVYYCARHYFDSGTYELGPFDYWGQGTLVTVSS
VL: DIVMTQSPDSLAVSLGERATINCKSSQNILLTSSNKNYLTWYQQKPGQPPKLLIYWASIRESGVPDRFSGSGSGTDFTLTISSLQAEDVALYFCQQYYITPFTFGPGTKVDIK
B7: H2M10690N (antibody, V domains shown)
VH: QVQLVQSGAEVKKPGASVKVSCKASGYTFTSYGISWVRQAPGQGLEWMGWISAYNGNTNYAQKLQGRVTMTTDTSTSTAYMELRSLRSDDTAVYYCARVPITGTTWFDPWGQGTLVTVSS
VL: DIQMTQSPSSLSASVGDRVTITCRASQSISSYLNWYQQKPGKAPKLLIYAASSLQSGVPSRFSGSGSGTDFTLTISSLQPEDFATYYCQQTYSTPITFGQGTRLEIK
notes: also called H2aM10690N
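Throughout, for 100 nM Monkey IL-25-MMH Bound (RU): Real-time surface plasmon resonance on a Biacore 4000, with IL-25-MMH binding to purified anti-IL-25 antibodies.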

One experiment concerns the target T1, monkey IL-25 expressed with a …. Nature of the experiment: SPR Biacore, captured mAb, 25°C. A general note: SPR reads the build-up and loss of mass on a sensor chip optically.
Protocol: (§1) Equilibrium dissociation constants (KD values) for IL-25 binding to purified anti-IL-25 antibodies were determined using a real-time surface plasmon resonance biosensor assay on a Biacore 4000 instrument (GE Healthcare). […] All the IL-25 reagents were expressed with a C-terminal myc-myc-hexahistidine tag (referred to herein as “IL-25-MMH”). […] Kinetic association (kₐ) and dissociation (kd) rate constants were determined by fitting the real-time sensorgrams to a 1:1 binding model using Scrubber 2.0c curve fitting software.
The Kd is a measure of binding affinity in units of concentration. The koff is a measure of how fast the partners let go of each other. As a reminder, the kon is the rate constant with which the complex forms. The t½ is how long it takes for the measured level to halve. Take B1: the “100 nM Monkey IL-25-MMH Bound (RU)” value worked out at 42 RU, the Kd is 0.0749 nM, the koff was 8.43e-05 s⁻¹ and the kon was 1.13e+06 M⁻¹ s⁻¹. The molecule further gave a t½ of 2.28 h.

As for B2, the “100 nM Monkey IL-25-MMH Bound (RU)” value amounted to 54 RU, the Kd worked out at 0.186 nM, the koff stood at 7.77e-05 s⁻¹ and the on-rate constant (kon) worked out at 417000 M⁻¹ s⁻¹. Also, the t½ was found to be 2.48 h.

For the molecule B3, the “100 nM Monkey IL-25-MMH Bound (RU)” value was 42 RU, the Kd was determined as 0.0965 nM, the koff was 6.06e-05 s⁻¹ and the association rate constant (kon) came out at 628000 M⁻¹ s⁻¹. Also, the t½ was determined as 3.18 h.

With B4, the “100 nM Monkey IL-25-MMH Bound (RU)” value was 51 RU, the Kd amounted to 0.218 nM, the koff came to 7.18e-05 s⁻¹ and the kon was found to be 329000 M⁻¹ s⁻¹. Moreover, the t½ was 2.68 h.

Turning to B5, the “100 nM Monkey IL-25-MMH Bound (RU)” value worked out at 43 RU, the Kd is 0.0485 nM, the dissociation rate constant (koff) was determined as 6.74e-05 s⁻¹ and the kon is 1.39e+06 M⁻¹ s⁻¹. Moreover, the t½ came out at 2.85 h.

Regarding B6, the “100 nM Monkey IL-25-MMH Bound (RU)” value was 58 RU, the Kd was at most 0.00965 nM, the koff is at most 1e-05 s⁻¹ and the on-rate (kon) is 1.04e+06 M⁻¹ s⁻¹. Further, the t½ was found to be 19.2 h.

A further experiment concerns the target T2, human IL-25 expressed with a C-terminal …. Nature of the experiment: SPR Biacore, captured mAb, 25°C.
Protocol: as §1
Turning to B1, the “100 nM Human IL-25-MMH Bound (RU)” value is 39 RU; the affinity, expressed as Kd, was 0.126 nM; the koff is 7.87e-05 s⁻¹; the kon worked out at 623000 M⁻¹ s⁻¹. The t½ was 2.45 h.

Regarding B2, the “100 nM Human IL-25-MMH Bound (RU)” value stood at 49 RU, the Kd was determined as 0.228 nM, the koff worked out at 0.000109 s⁻¹ and the kon came out at 478000 M⁻¹ s⁻¹. The molecule further returned a t½ of 1.77 h.

With B3, the “100 nM Human IL-25-MMH Bound (RU)” value was 38 RU, the dissociation constant Kd was 0.0851 nM, the koff turned out to be 6.38e-05 s⁻¹ and the kon was 749000 M⁻¹ s⁻¹. Moreover, the t½ was found to be 3.02 h.

Regarding B4, the “100 nM Human IL-25-MMH Bound (RU)” value was 45 RU, binding was put at a Kd of 0.124 nM, the koff is 4.78e-05 s⁻¹ and the kon worked out at 386000 M⁻¹ s⁻¹. This molecule showed a t½ of 4.03 h.

B5: the “100 nM Human IL-25-MMH Bound (RU)” value was 40 RU, binding was characterised by a dissociation constant (Kd) of 0.0883 nM, the koff turned out to be 6.5e-05 s⁻¹ and the on-rate constant (kon) was 736000 M⁻¹ s⁻¹. For the same molecule, the t½ is 2.97 h.

With B6, the “100 nM Human IL-25-MMH Bound (RU)” value is 56 RU, the Kd was at most 0.0142 nM, the koff is at most 1e-05 s⁻¹ and the kon was 706000 M⁻¹ s⁻¹. Also, the t½ stood at 19.2 h.

As to B7, the “100 nM Human IL-25-MMH Bound (RU)” value came out at 32 RU, the Kd came to 36.2 nM, the koff is 0.0029 s⁻¹ and the kon is 80200 M⁻¹ s⁻¹. For the same molecule, the t½ came out at 0.0667 h.

The next experiment shares this target. Nature of the experiment: SPR Biacore, captured mAb, 37°C.
Protocol: as §1
As to B1, the “100 nM Human IL-25-MMH Bound (RU)” value turned out to be 48 RU, the Kd is 0.218 nM, the koff was determined as 0.000226 s⁻¹ and the kon is 1.04e+06 M⁻¹ s⁻¹. Further, the t½ is 0.85 h.

As to B2, the “100 nM Human IL-25-MMH Bound (RU)” value turned out to be 55 RU, binding was characterised by a dissociation constant (Kd) of 0.149 nM, the koff came to 0.00012 s⁻¹ and the kon was 809000 M⁻¹ s⁻¹. The molecule further returned a t½ of 1.6 h.

As to B3, the “100 nM Human IL-25-MMH Bound (RU)” value is 49 RU, the Kd worked out at 0.0276 nM, the koff was 3.18e-05 s⁻¹ and the kon was determined as 1.15e+06 M⁻¹ s⁻¹. Moreover, the t½ was 6.05 h.

In the case of B4, the “100 nM Human IL-25-MMH Bound (RU)” value is 60 RU, the Kd is 0.0944 nM, the koff was 5.93e-05 s⁻¹ and the kon worked out at 628000 M⁻¹ s⁻¹. For the same molecule, the t½ worked out at 3.25 h.

For the molecule B5, the “100 nM Human IL-25-MMH Bound (RU)” value was determined as 47 RU; the affinity, expressed as Kd, was 0.0375 nM; the koff amounted to 4.45e-05 s⁻¹; the kon stood at 1.19e+06 M⁻¹ s⁻¹. This molecule registered a t½ of 4.32 h.

As to B6, the “100 nM Human IL-25-MMH Bound (RU)” value is 74 RU, the Kd is 0.0304 nM, the dissociation rate constant (koff) is 4.8e-05 s⁻¹ and the kon came to 1.58e+06 M⁻¹ s⁻¹. For the same molecule, the t½ is 4.02 h.

For the molecule B7, the “100 nM Human IL-25-MMH Bound (RU)” value turned out to be 39 RU, binding was characterised by a dissociation constant (Kd) of 61.4 nM, the koff came out at 0.00844 s⁻¹ and the kon was 137000 M⁻¹ s⁻¹. The molecule also had a t½ of 0.0233 h.

The values above are taken from patent US20160083466A1 (Regeneron, published 2016).
